Results reported in article PMC7335187, “Super-assembly of ER-phagy receptor Atg40 induces local ER remodeling at contacts with forming autophagosomal membranes” (Nature Communications, 2020).

Tests used:
Assay in all cases: ITC
[1] = target: T1, SEC62^355–376 peptide, Q99442; conditions: chain shown with the change
T1 chain: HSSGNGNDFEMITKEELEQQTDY

[2] = target: T2, FAM134B^444–470 peptide, Q9H6L5; conditions: chain shown with the change
T2 chain: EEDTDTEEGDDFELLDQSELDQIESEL

[3] = target: T3, Atg8 (1-116) K26P, P38182; conditions: chain shown with the change; Atg8 (1.8 mM)
T3 chain: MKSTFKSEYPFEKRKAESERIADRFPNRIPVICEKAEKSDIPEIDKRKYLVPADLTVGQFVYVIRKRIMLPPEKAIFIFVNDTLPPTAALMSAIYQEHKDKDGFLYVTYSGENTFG

[4] = target: human GABARAP (1-116), O95166; conditions: chain shown with the change

B1: human GABARAP (1-116), O95166 R67A (protein)
chain: MKFVYKEEHPFEKRRSEGEKIRKKYPDRVPVIVEKAPKARIGDLDKKKYLVPSDLTVGQFYFLIRKAIHLRAEDALFFFVNNVIPPTSATMGQLYQEHHEEDFFLYIAYSDESVYG
- Kd [1]: 9.43 µM
- Kd [2]: 1.88 µM

B2: Atg40^237–252 peptide, Q99325 D243A; D247A (peptide)
chain: EFPNDYAFMEAILDET
- Kd [3]: 83.3 µM

B3: SEC62^355–376 peptide, Q99442 E364A; E370A (peptide)
chain: GPHSSGNGNDFAMITKEALEQQTDY
- Kd [4]: 35.1 µM

B4: FAM134B^444–470 peptide, Q9H6L5 F455A (peptide)
chain: GPEEDTDTEEGDDAELLDQSELDQIESELY
- Kd [4]: 3.55 µM
